According to publication PMC4011586:

Molecular target: human platelet-derived growth factor alpha receptor (human (endogenous in U373)) (UniProt P16234)
Sequence of UniProt P16234 (P16234 24-1089): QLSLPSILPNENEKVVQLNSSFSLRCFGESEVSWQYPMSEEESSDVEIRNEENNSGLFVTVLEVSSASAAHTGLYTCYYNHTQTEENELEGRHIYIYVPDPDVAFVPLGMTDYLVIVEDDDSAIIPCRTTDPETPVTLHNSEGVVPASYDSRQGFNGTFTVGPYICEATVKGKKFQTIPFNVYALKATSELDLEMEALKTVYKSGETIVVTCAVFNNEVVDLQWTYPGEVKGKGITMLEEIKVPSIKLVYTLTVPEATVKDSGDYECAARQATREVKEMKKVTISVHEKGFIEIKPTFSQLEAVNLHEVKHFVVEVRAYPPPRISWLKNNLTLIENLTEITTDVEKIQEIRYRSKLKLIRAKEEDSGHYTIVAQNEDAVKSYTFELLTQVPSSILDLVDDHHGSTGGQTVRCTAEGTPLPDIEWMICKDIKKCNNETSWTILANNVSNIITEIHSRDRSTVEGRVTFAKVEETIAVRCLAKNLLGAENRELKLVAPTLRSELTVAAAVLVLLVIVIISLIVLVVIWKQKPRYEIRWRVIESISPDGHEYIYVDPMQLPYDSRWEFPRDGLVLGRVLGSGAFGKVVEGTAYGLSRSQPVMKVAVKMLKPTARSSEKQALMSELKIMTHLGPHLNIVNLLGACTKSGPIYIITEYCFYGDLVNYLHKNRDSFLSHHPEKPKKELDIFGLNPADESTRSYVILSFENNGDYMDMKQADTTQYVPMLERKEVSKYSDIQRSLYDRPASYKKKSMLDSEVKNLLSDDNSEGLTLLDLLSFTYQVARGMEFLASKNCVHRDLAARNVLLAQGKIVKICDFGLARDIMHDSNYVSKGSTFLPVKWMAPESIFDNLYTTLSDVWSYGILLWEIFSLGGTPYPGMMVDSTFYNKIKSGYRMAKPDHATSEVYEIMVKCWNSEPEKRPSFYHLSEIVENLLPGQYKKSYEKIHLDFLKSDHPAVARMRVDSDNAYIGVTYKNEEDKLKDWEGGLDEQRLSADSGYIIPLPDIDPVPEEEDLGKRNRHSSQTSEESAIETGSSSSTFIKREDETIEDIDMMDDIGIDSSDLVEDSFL

recombinant HCMV glycoprotein B (from UniProt P13201 23-907) (ligand)
phosphorylation of PDGFRα in U373 cells stimulated with recombinant gB, cell based ELISA, relative to PDGF-AA (100%): 50%
